# Measurements as given in paper PMC5739284 (Nature microbiology, 2017).
# Target: GST-His6-LC3B (recombinant) (human, UniProt Q9GZQ8 1-120)
# Assay: pull-down
binder,measurement,value
SGGDDDWTHLSSK [synthetic p62 LIR peptide],binding result,binds
